For 167 variants, abundance fitness results are on record in the Human Domainome abundance scans (Beltran et al. 2025).

The labels stand for the following.
B1: Chromodomain-helicase-DNA-binding protein 5, residues 338 to 390; numbered along this chain, Q8TDI0 (parent)
chain: YETDHQDYCEVCQQGGEIILCDTCPRAYHLVCLDPELEKAPEGKWSCPHCEKE

± gives the uncertainty stated by the source.

The variants in the series derive from B1. Briefly: abundance fitness (aPCA) (normalised: wild type 0, dead -1); higher = more abundant; growth selection in yeast, the domain comes from the species named. The settings on record: Homo sapiens.
Regarding P25T, the abundance fitness came out at 0.057 ± 0.16. Under P25R stands -0.107 ± 0.12. Under P25Y stands -0.08 ± 0.34; under T23C, -0.177 ± 0.23. Take T23F: the abundance fitness amounted to 0.166 ± 0.16. For T23N, the abundance fitness came out at 0.034 ± 0.17. For T23I, the abundance fitness is -0.135 ± 0.2. Take T23G: the abundance fitness was -0.305 ± 0.11. Turning to T23Y, the abundance fitness was -0.161 ± 0.19. Regarding T23K, the abundance fitness was -0.457 ± 0.22. For the variant E36W, the abundance fitness was -0.321 ± 0.14. For the variant E36Y, the abundance fitness was -0.35 ± 0.15. Under G15D stands -0.167 ± 0.18; under D7E, -0.255 ± 0.16; under P35H, -0.524 ± 0.34. In the case of P35S, the abundance fitness is -0.057 ± 0.11. With P35V, the abundance fitness was found to be 0.03 ± 0.096. On to P35F, for which the abundance fitness was -0.915 ± 0.33. As for P35I, the figure is -0.209 ± 0.21; as for Q14N, -0.065 ± 0.17. Consider Q14P, for which the abundance fitness was -1.04 ± 0.23. As to I18T, the abundance fitness was 0.021 ± 0.15. I18F: the abundance fitness is -0.058 ± 0.16. For the variant I18G, the abundance fitness amounted to 0.047 ± 0.097. Take V11M: the abundance fitness was found to be 0.459 ± 0.11. On to P41G, for which the abundance fitness is -0.106 ± 0.12. As for P41E, the abundance fitness was -0.114 ± 0.13. As for P41C, the abundance fitness is -0.379 ± 0.17. P41W: the abundance fitness is -0.323 ± 0.15. Under P41R stands -0.075 ± 0.098; under P41L, -0.135 ± 0.1; under P41M, -0.124 ± 0.17.

Consider D22L, for which the abundance fitness is -0.059 ± 0.12. Take D22T: the abundance fitness was determined as 0.187 ± 0.17.

As for D22I, the abundance fitness was -0.177 ± 0.21. As for D22H, the figure is -0.078 ± 0.24. C50L: the abundance fitness was -0.575 ± 0.13.

On to L33M, for which the abundance fitness came out at 0.185 ± 0.12. Turning to C12V, the abundance fitness was -0.759 ± 0.11. With I19R, the abundance fitness worked out at 0.115 ± 0.088. Regarding I19F, the abundance fitness is 0.051 ± 0.22. As to I19H, the abundance fitness is 0.128 ± 0.19. For the variant I19V, the abundance fitness is -0.085 ± 0.11. Take I19D: the abundance fitness was -0.023 ± 0.15. As for H5K, the figure is 0.021 ± 0.14; as for E42G, -0.117 ± 0.1. As for K44Q, the figure is -0.053 ± 0.13; as for K44T, 0 ± 0.13. Consider K44C, for which the abundance fitness was -0.051 ± 0.13. For the variant K44L, the abundance fitness was -0.009 ± 0.12.

As to K44Y, the abundance fitness was -0.599 ± 0.21. Regarding K44D, the abundance fitness is 0.216 ± 0.16. With Y1W, the abundance fitness came to 0.122 ± 0.23.

For A27H, the abundance fitness is -0.097 ± 0.18. As for A27R, the figure is -0.086 ± 0.1; as for Q6A, 0.193 ± 0.29; as for Q6H, -0.286 ± 0.18.

Take Q6W: the abundance fitness was -0.421 ± 0.12. With Q6C, the abundance fitness is -0.153 ± 0.13. On to Q6S, for which the abundance fitness was -0.047 ± 0.12. For the variant C47P, the abundance fitness is -0.96 ± 0.2. As for C47V, the figure is -0.773 ± 0.19; as for C47H, -0.248 ± 0.18; as for C47L, -0.855 ± 0.12. C47F: the abundance fitness was -0.765 ± 0.28. C9D: the abundance fitness is -0.618 ± 0.21. As for C9P, the figure is -0.558 ± 0.15. On to C9G, for which the abundance fitness was -0.593 ± 0.095. As to C9A, the abundance fitness was -0.726 ± 0.12. As for C9Y, the figure is -0.489 ± 0.12. E51I: the abundance fitness was -0.387 ± 0.16.

For E51W, the abundance fitness was -0.25 ± 0.18.

Consider E51C, for which the abundance fitness is -0.123 ± 0.19. As for E51M, the figure is -0.401 ± 0.17; as for E51G, -0.095 ± 0.1; as for E51R, -0.396 ± 0.12. Turning to L37V, the abundance fitness was -0.026 ± 0.11. In the case of L37M, the abundance fitness was -0.152 ± 0.16. Regarding L37N, the abundance fitness is -0.102 ± 0.31. Take W45T: the abundance fitness was -0.393 ± 0.16.

As to W45S, the abundance fitness was -0.054 ± 0.1. As for W45A, the abundance fitness was -0.105 ± 0.14. G16S: the abundance fitness was 0.114 ± 0.13. As to G16Y, the abundance fitness came to 0.193 ± 0.2.

For G16C, the abundance fitness was -0.336 ± 0.27.

In the case of T3R, the abundance fitness came out at 0.119 ± 0.094.

Take T3W: the abundance fitness stood at 0.236 ± 0.12. As to T3K, the abundance fitness is 0.264 ± 0.16. Regarding T3V, the abundance fitness is 0.027 ± 0.12.

Turning to L30W, the abundance fitness is -0.036 ± 0.13.

Turning to L30S, the abundance fitness is -0.06 ± 0.11. In the case of E17G, the abundance fitness was -0.07 ± 0.09. Consider E17T, for which the abundance fitness was -0.109 ± 0.19. On to E17Q, for which the abundance fitness was -0.377 ± 0.21. As for E17H, the figure is -0.435 ± 0.32; as for E17K, 0.105 ± 0.16. As to E17I, the abundance fitness was found to be 0.227 ± 0.21. With R26T, the abundance fitness is -0.436 ± 0.26.

Turning to C24K, the abundance fitness is -0.917 ± 0.23. As for C24R, the abundance fitness is -0.804 ± 0.12. With C24V, the abundance fitness was -0.979 ± 0.16.

With C24Q, the abundance fitness was -0.879 ± 0.21. Under C24I stands -0.88 ± 0.35; under Q13M, 0.002 ± 0.13; under Q13T, -0.185 ± 0.11. Consider Q13V, for which the abundance fitness turned out to be 0.056 ± 0.096. Turning to Q13R, the abundance fitness was determined as 0.163 ± 0.085.

For the variant D4P, the abundance fitness is -0.049 ± 0.14. As for D4T, the abundance fitness was -0.008 ± 0.12. As for D4M, the figure is 0.627 ± 0.13; as for D4I, 0.03 ± 0.15.

As to D4C, the abundance fitness was determined as 0.128 ± 0.14. For D4F, the abundance fitness is 0.04 ± 0.16. With H49V, the abundance fitness was -0.45 ± 0.18. As for H49W, the figure is -0.69 ± 0.3; as for C21Q, -0.973 ± 0.28; as for C21I, -0.912 ± 0.35. As to E2T, the abundance fitness was 0.488 ± 0.21. As for E2P, the abundance fitness was -0.175 ± 0.22.

On to E2R, for which the abundance fitness worked out at 0.267 ± 0.12. Turning to E2N, the abundance fitness is 0.405 ± 0.28. Turning to E2K, the abundance fitness is 0.529 ± 0.2. In the case of S46W, the abundance fitness was -0.14 ± 0.13.

On to S46F, for which the abundance fitness is -0.035 ± 0.17. In the case of K39Y, the abundance fitness was -0.278 ± 0.2. For the variant K39S, the abundance fitness was -0.251 ± 0.15.

For D34P, the abundance fitness is -0.15 ± 0.21.

For the variant D34A, the abundance fitness amounted to 0.052 ± 0.12. As for D34W, the abundance fitness was -0.516 ± 0.18. In the case of D34H, the abundance fitness worked out at 0.039 ± 0.18. For the variant D34Q, the abundance fitness is -0.098 ± 0.17. Consider D34L, for which the abundance fitness is -0.201 ± 0.11. As for D34F, the figure is -0.058 ± 0.16. Under V31I stands -0.205 ± 0.13.

Consider V31N, for which the abundance fitness was -0.193 ± 0.21. E38I: the abundance fitness is -0.294 ± 0.24. On to E38Q, for which the abundance fitness is -0.008 ± 0.15.

In the case of E38M, the abundance fitness stood at 0.042 ± 0.16. As for K52V, the figure is -0.324 ± 0.12. Under K52L stands -0.249 ± 0.14; under K52A, -0.182 ± 0.13; under G43I, -0.169 ± 0.16.

With G43N, the abundance fitness stood at 0.23 ± 0.15. As for G43V, the figure is 0.029 ± 0.11. G43D: the abundance fitness was 0.044 ± 0.14. As for C32H, the abundance fitness was -0.765 ± 0.32. C32R: the abundance fitness is -0.94 ± 0.13.

Turning to A40W, the abundance fitness is -0.404 ± 0.16. Take A40C: the abundance fitness was -0.396 ± 0.16. Regarding A40H, the abundance fitness was -0.094 ± 0.22. As for A40R, the figure is -0.072 ± 0.11; as for Y28F, -0.315 ± 0.19; as for Y28L, -0.148 ± 0.13. As to Y28R, the abundance fitness was 0.023 ± 0.096. On to Y8P, for which the abundance fitness turned out to be 0.33 ± 0.13. As for Y8M, the figure is 0.102 ± 0.13. As for Y8K, the figure is -0.067 ± 0.13; as for Y8F, -0.204 ± 0.25; as for Y8G, 0.078 ± 0.11. Under L20F stands 0.078 ± 0.14. P48M: the abundance fitness came to 0.107 ± 0.14. As for P48W, the figure is 0.01 ± 0.14; as for P48S, 0.016 ± 0.12; as for P48N, 0.014 ± 0.24. Consider P48T, for which the abundance fitness was -0.006 ± 0.15. Take H29T: the abundance fitness is -0.986 ± 0.2. As for H29A, the abundance fitness is -0.5 ± 0.12.
